# No end group written: not given here.
# T1: soluble human insulin receptor-immunoglobulin heavy chain chimera (sIR-Fc; Bass et al., 1996) (human), P06213
# T1 chain: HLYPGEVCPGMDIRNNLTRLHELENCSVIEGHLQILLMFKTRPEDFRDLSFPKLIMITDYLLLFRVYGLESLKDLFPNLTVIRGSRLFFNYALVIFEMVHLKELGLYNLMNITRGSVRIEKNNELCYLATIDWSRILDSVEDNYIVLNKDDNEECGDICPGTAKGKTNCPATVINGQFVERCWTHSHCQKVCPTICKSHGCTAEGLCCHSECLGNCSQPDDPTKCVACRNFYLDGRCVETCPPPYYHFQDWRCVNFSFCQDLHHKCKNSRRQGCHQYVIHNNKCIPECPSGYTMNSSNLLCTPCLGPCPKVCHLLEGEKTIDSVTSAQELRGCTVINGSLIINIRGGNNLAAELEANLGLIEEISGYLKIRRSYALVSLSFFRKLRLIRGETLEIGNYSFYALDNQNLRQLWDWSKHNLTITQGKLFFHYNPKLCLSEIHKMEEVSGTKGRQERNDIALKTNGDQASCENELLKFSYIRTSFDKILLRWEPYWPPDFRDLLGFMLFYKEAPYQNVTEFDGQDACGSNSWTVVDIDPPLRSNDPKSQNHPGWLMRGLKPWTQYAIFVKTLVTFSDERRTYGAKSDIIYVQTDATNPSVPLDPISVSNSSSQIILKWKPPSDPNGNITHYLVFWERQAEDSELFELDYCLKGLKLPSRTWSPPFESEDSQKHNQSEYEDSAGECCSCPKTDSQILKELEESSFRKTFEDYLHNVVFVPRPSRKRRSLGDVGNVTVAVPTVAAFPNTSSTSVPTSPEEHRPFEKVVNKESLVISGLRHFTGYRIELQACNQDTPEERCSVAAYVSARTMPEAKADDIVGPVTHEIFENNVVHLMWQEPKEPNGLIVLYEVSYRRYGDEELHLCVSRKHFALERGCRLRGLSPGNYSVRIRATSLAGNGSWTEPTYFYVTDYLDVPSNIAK
# Tests used:
# [1] = target: soluble human insulin receptor-immunoglobulin heavy chain chimera (sIR-Fc; Bass et al., 1996) (human) (UniProt P06213); assay: phage ELISA
# [2] = target: His-tagged soluble recombinant human IGF-IR (srhIGF-1R-his) (human), P08069; assay: ALPHAScreen competition against b-hIGF-1 on srhIGF-1R-his
# [3] = target: soluble IGF-1R (recombinant human IGF-1R extracellular domain, R&D Systems Cat. # 391-GR/CF) (human), P08069; assay: phage ELISA
# [4] = target: T1, soluble human insulin …; assay: phage ELISA
# [5] = target: IGF-1R on cells (MCF-7, MiaPaCa, FDC-P2 cells expressing human IGF-1R) (human) (UniProt P08069); assay: cell-based or functional assay
Binder,IR/IGF-1R ratio comparison [1],ratio over background [1],IC50 [2],IGF-1R/IR ratio comparison [3],ratio over background [3],IR/IGF-1R ratio comparison [4],ratio over background [4],"Cellular EC50 (M), FDC-P2 cell proliferation [5]"
RCGRWXAEMGAGDDPFYHKLSELVCG (not fully specified; X: residue not identified in the source; cysteine pairing not given here) [B6Hα-2-C4-IR],–,–,–,11,9.9,0.1,0.9,–
CMMXDGFYAGLGCLLTAGEGR (not fully specified; printed as CMM.DGFYAGLGCLLTAGEGR; X: residue not identified in the source; cysteine pairing not given here) [20E2B-3-C11-IGFR],–,–,–,7.5,15.4,0.1,2.1,–
CCLLCRFQQNFYDWFVCQGISRLRPL (modifications not checked) [H2CA-2-B4-IGFR],–,–,–,3.6,4.1,0.3,1.1,–
VVTPVNFYRALEALVRGXRLG (not fully specified; printed as VVTPVNFYRALEALVRG.RLG; X: residue not identified in the source) [20E2B-2-B11-IGFR],–,–,–,9.4,10.6,0.1,1.1,–

# Continued, values first:
IR/IGF-1R ratio comparison [1],ratio over background [1],IC50 [2],IGF-1R/IR ratio comparison [3],ratio over background [3],IR/IGF-1R ratio comparison [4],ratio over background [4],"Cellular EC50 (M), FDC-P2 cell proliferation [5]",Binder
0.3,1.9,–,–,–,–,–,–,SQAGSAFYAWFDQVLRTVHSA [20E2Bβ-4-G6-IR]
–,–,2.2 µM,–,–,–,–,–,WLDQERAWLWCEISGRGCLS (modifications not checked) [lig-D815]
–,–,0.71 µM,–,–,–,–,3e-06 M,"GIISQSCPESFYDWFAGQVSDPWWCW (peptide, from a related filing, modifications not checked) [G33-lig]"

# From patent US20070004634A1
